Assay results from publication PMC3045595 (Nucleic Acids Research, 2010).

Biological target: the molecule itself
Test: SEC

B1: human TYW5 (tRNA yW-synthesizing enzyme 5), wild type (enzyme)
chain: MAGQHLPVPRLEGVSREQFMQHLYPQRKPLVLEGIDLGPCTSKWTVDYLSQVGGKKEVKIHVAAVAQMDFISKNFVYRTLPFDQLVQRAAEEKHKEFFVSEDEKYYLRSLGEDPRKDVADIRKQFPLLKGDIKFPEFFKEEQFFSSVFRISSPGLQLWTHYDVMDNLLIQVTGKKRVVLFSPRDAQYLYLKGTKSEVLNIDNPDLAKYPLFSKARRYECSLEAGDVLFIPALWFHNVISEEFGVGVNIFWKHLPSECYDKTDTYGNKDPTAASRAAQILDRALKTLAELPEEYRDFYARRMVLHIQDKAYSKNSE
Question: For B1, which “stoichiometry N” value is on record?
Answer: 2
